The text below walks through data of US20170159065A1 (VIB VZW, published 2017).

The labels stand for the following.
B1: PPD2 (PEAPOD2) (other, Arabidopsis thaliana, UniProt Q8GY55 1-315, looked up)
chain: MDVGVTTAKSILEKPLKLLTEEDISQLTREDCRKFLKEKGMRRPSWNKSQAIQQVLSLKALYEPGDDSGAGILRKILVSQPPNPPRVTTTLIEPRNELEACGRIPLQEDDGACHRRDSPRSAEFSGSSGQFVADKDSHKTVSVSPRSPAETNAVVGQMTIFYSGKVNVYDGVPPEKARSIMHFAANPIDLPENGIFASSRMISKPMSKEKMVELPQYGLEKAPASRDSDVEGQANRKVSLQRYLEKRKDRRFSKTKKAPGVASSSLEMFLNRQPRMNAAYSQNLSGTGHCESPENQTKSPNISVDLNSDLNSEDN
notes: Used as tagged bait in TAP from Arabidopsis cell culture and as a GAL4 fusion in Y2H/Y3H; the tags and fusion partners are not described; also called PPD2-HBH

The data set “yeast two-hybrid” deals with the molecule itself. In words: yeast two-hybrid.
A further data set has as its target T1, JAZ3 (Arabidopsis, UniProt Q9LVI4 1-352).
T1 construct: Endogenous prey in TAP; Y2H fusion in the yeast assays
T1 sequence (looked up): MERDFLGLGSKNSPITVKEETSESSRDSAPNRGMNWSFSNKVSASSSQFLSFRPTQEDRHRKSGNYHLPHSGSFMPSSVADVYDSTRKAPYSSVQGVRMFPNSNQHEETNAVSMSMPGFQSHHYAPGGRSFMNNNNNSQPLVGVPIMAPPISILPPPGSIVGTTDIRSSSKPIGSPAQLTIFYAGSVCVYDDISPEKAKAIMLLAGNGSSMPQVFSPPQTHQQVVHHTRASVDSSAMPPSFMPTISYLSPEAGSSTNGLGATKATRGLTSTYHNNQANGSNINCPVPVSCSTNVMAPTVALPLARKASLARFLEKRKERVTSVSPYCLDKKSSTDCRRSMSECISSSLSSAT
Kind of data set: tandem affinity purification (TAP) from Arabidopsis cell culture, Orbitrap mass spectrometry. An excerpt: (§1) PPD proteins belong to the class II of the TIFY protein family together with 12 JAZ proteins […]. In the TIFY proteins, diverse domains are associated with different protein-protein interaction abilities, previously being able to isolate, by using tandem affinity purification (TAP), protein complexes from Arabidopsis cell cultures over-expressing JAZ proteins and to identify their interacting proteins (Pauwels et al., 2010). In order to determine the protein complex associated to PPD2, an updated and more sensitive protocol was applied using Orbitrap mass spectrometry (Eloy et al., 2012). […] To test this hypothesis, all 12 JAZ proteins, PPD1, PPD2 and TIFY8 for interaction with the PPD proteins were tested using yeast two-hybrid (Y2H) assays. These confirmed direct interaction with JAZ3 and TIFY8 and provided evidence of homo- and heterodimerization between PPD1 and PPD2. Moreover, the TAP analysis identified the TPL-adaptor protein NINJA and two proteins of yet unknown function, encoded by At3g24150 and At4g32295 and named KIX8 and KIX9 (see Table 3, Thakur et al., 2013).

The target of a further data set is T2, TIFY8 (Arabidopsis, UniProt Q84MB2 1-361).
T2 sequence (looked up): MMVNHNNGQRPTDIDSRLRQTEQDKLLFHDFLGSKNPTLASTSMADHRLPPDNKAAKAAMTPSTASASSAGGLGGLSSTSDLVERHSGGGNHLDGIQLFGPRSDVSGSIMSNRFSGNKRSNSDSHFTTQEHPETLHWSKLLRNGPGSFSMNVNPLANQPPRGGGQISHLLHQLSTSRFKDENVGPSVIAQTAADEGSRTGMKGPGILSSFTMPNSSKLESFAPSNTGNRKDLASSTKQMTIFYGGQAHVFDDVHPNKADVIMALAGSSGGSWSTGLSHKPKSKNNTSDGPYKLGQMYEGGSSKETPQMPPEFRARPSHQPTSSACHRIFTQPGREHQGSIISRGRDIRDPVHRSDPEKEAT
The description is as above.
Description: as §1

In the data set “PPD2 (PEAPOD2)” the target is B1. In words: yeast two-hybrid.

With B1, the binding result in “yeast two-hybrid”, with JAZ3 and in the data set with TIFY8 was “binds” in each case.

B2: PPD1 (other, Arabidopsis thaliana, UniProt Q7XA73 1-313, looked up)
chain: MDVGVSPAKSILAKPLKLLTEEDISQLTREDCRKFLKDKGMRRPSWNKSQAIQQVLSLKALYEPGDDSGAGIFRKILVSQPVNPPRVTTTLIEPSNELEACGRVSYPEDNGACHRMDSPRSAEFSGGSGHFVSEKDGHKTTISPRSPAETSELVGQMTIFYSGKVNVYDGIPPEKARSIMHFAANPIDLPENGIFASSRMISKLISKEKMMELPQKGLEKANSSRDSGMEGQANRKVSLQRYREKRKDRKFSKAKKCPGVASSSLEMFLNCQPRMKAAYSQNLGCTGSPLHSQSPESQTKSPNLSVDLNSEGI
notes: Y2H fusion; also called PEAPOD1
Consider B2, for which the binding result in the data set with PPD2 (PEAPOD2) and in “yeast two-hybrid” was “binds” each time.
